The text below walks through data of the DeepSol protein solubility set.

This data set in a line: soluble on expression in E. coli; label from the status in PepcDB or PDB records.
On to “MGSDKIHHHHHHRGDKPVVWNHQDRRFEVIQQKKQRQRLDSYRRIVIDTTAPVTIRQGDTRQVTLHNFSSANNRLRARVSQGTLTVTGGSTTMNYVLGFGSDGGGINFSSNGDKRGVVITVPKTQRLDSIISKREGGELSLKKMTVKQISVKSTDDVSFNDVRVTKTLAVDTTAGDISGKQVKADRVDLTAEEGDVSLTQSHFKAVNNRVISGDGDVRLATTQLGGGHVVASDGDIQLHDNRLMGTLKATATDGDISARIAPAAGAKVTTTDSDDEIHVVGHSRSSGYWLRRAASAQYRLSTDDGDITVTQ”, for which the “soluble on expression in E. coli” value was “not soluble”.
With “MGSDKIHHHHHHVMTKAADGMSDWDNMAIICDVLGRAPDVEMGSIGEGWSLCRWRQFVGAYTLPALPQPIFTVHIAGKPQVKTWDKGGWTETSSIPGCATIVPAGMPTGWLVDGELDVVTLSMASDVLAGQPHADQFNRMRFAFSDPLGVALTRQILSEIYAPQAEERTAYVSAMVGALKAHILSGPPAHGNPVDIPVSDFSAYRLHKIMNAILADPAAEHSLEAMAAVAGVTPSHFCRLFKKAIGITPHQYVMKARLDRAQQMLVQTEMSLAALSEAAGFASQSHFSRAFRSWFGMAPSDFRQQERRRTD” the entry was “not soluble”.
As to “MKERESVQDQSDPSETDSEELLQLDGKSISEWVSEIDAISKEVEAELVSRDIGCHLVQVLEAVNTVLFDLRGFKRTSITLDPENSYLHSVLNCRCSTAFLISVIYIEVCKRLNVPIVGSPVGEDFLIWPKTEYPEELFKATSGQSLFSIVNGRCVDDPGSMASDLTAKSLQDLDMATNRDIIGIALANLIRLHWRRASKSSHGLMLTSPLSQLNNISSSNFPLLRPQDLRLAIAAAERLLILQPHNWALRRDLGMMLYYDRQYGEAVQELSICMAFAPPEEEAVLEPFVERLHLLRLISSLKPLGSDRLTVP”, the “soluble on expression in E. coli” value is reported as “soluble”.
In the case of “MGSDKIHHHHHHENLYFQGMGTDKFNNIKIDKYENLINVLKTGDIFLCSGNYLVSKLIKKVSESMFSHTGIIVKWGEHTLIMESVEDDGVRIVPLEHYIKNYENSNNRYNGSLFIARHELLQNVNDDSEMIRNLIKVGFSLLNSGYDKNEIAQIVARIGLGIGRHEDNNEYICSEFVNECFKKIGVEFLTDSEGFIFPEHIAADHHVLPIAQIE”, the “soluble on expression in E. coli” value is reported as “soluble”.
Regarding “MGSSHHHHHHSSGLVPRGSHMEPAATTYGTSTSVGVHNAYEKEKYRYFADALDSGAALLELDLWSNALGRSWRVSHSNPLGNNSNCEGAANASELRTKSRDQDFAGCLSDMRAWHDAHPGHRPILLKIEMKDGFNAKGGRGPAEFDALIRQKLGDAVYGPGDLTGGHATADEAVRAGGWPSRADLAGKFLFELIPGTVEEKNPFDKLWTDVEYAGHLKDLAAQGKLAQSTAFPAVHGAAPGDPRERYADPALRPWFVVFDGDAATYLNGSIDTSWYDTRHYLLIMTDAHNVPPVIDGTHPTEAEALARVRQLAAAHASFATADWYPLPSVLKTVVPRGA”, the “soluble on expression in E. coli” value was “soluble”.
Consider “MYEYCRKRGLYPDAESYPWKSNAHYWLVTNLYQNMRANALADAELRRKAADELTCMTARINRGETIPEPVKQLPVMGGRPLNRAQALAKIAEIKAKFGLKGASVLEHHHHHH”, for which the “soluble on expression in E. coli” value was “not soluble”.
With “MPGKNEYAVESLLTVGNGFLGLRGTTPEMTISDDHYPATYIAGLYNTAASEVAGQVVENEDFVNAPDNQHIALKIGDATDWLTISPDTLQQLHRQLNLKTGLFVAEMILKDADNQQIKLTTKKIANMAQPNDYHLQYTFEPLNFSAPITLKTVTDGSVYNYNVARYRNLTAKHFQVTALSAQENKTVIEVCTNQSNLSVRETSLITGDFFEKEAITIQEEAEKIAQVVTVMAHQGTRYTLEKQVFVQASHAEQSWQVPFTPKDSFAAAAQESARAWQTLWQQANITVTGDLMSQKLLRIHSYHLLASASPFSNQAQALDVSITARGLHGEAYRGHIFWDEIFILPFYIQHYPDTAKQLLLYRYHRLEKAKENAAASQYRGAMYPWQSGRDGRETTQKLHLNPLNGHWGEDHSILQRHVSLAIAYNAWLYWHSTQDHEFMKQYGGEMLLEIAQFWNSAATLDDATGRFFIDKVMGPDEFHEGYPDQAESGLKNNAYTNLMVVWLFEELTNILALFSEEEQAQLFAKTQTTSADLARMQQIQNSLEIEVNSDGIIAQYEGYFGLKEIDWTAMKEKYGNIYRMDRILKAEGESPDDYKVAKQADTLMLFYNLDKTRVDQILEDLGYQLPADYLEKNLLYYLKRTSHGSTLSRIVHAQLAEMAQFHELSWQLYQEALYSDYRDIQGGTTAEGIHTGVMAATIHVTLATYAGVDTRQNELSICPNLPEHWQALAFQFIHQGVTYQFSLTQTSVTITADRDTQLLVQGALIPLTAERPKEVHYQ”, the “soluble on expression in E. coli” value was “not soluble”.
Consider “MGSDKIHHHHHHRTKDQYYELRDFALGTSVRIVVSSQKINPRTIAEAILEDMKRITYKFSFTDERSVVKKINDHPNEWVEVDEETYSLIKAACAFAELTDGAFDPTVGRLLELWGFTGNYENLRVPSREEIEEALKHTGYKNVLFDDKNMRVMVKNGVKIDLGGIAKGYALDRARQIALSFDENATGFVEAGGDVRIIGPKFGKYPWVIGVKDPRGDDVIDYIYLKSGAVATSGDYERYFVVDGVRYHHILDPSTGYPARGVWSVTIIAEDATTADALSTAGFVMAGKDWRKVVLDFPNMGAHLLIVLEGGAIERSETFKLFERE”, for which the “soluble on expression in E. coli” value was “soluble”.
With “MKIGFIGTGSMGTILIESFLESSALTAEQIVITNRTQEKADALARRYPGLSVVDRPEEVVQQTDCFFVCVKPMQFHRVLMDIRPHCSANKLLVSITSPISIAQLENSVDCKVARAIPSILNRACAGSTLVSFSERCLEEDRSFLCGLLGTISEPLLIEEKITRVSSDIVSCGPAFFSYLTQRFIEAAVRQTAISEEDATALATEMLIGIGKLLDQELYTLPSLQKRVCVPGGITGEGIRVLEEDVGHMFDRLFQKTHQKYYHEQEKISSQLTLKGMAGDPNSLEHHHHHH” the entry was “not soluble”; with “MGSDKIHHHHHHMIDVIIVGGGPTGTMLASELRLHGVHTVVVEKRAEPTRIVRGLGLHVRSIEIMDQRGLLERFLAHGTKHPVGGYFAGIMKPWPKSLDTAHPYILGIPQPTTDRLLEERASELGADIRRGWELVGLSQDEDGVTAQLADGTQLRARYLVGCDGGRSTVRTLLGVGFPGESATTEWLLGEVKATASPETVAAVMAKVRQTQLGFAMGPLDDGVYRAVVPAAHVSEDRAAPPTLEEFAQRLREVTGTDFGVHSPRWLSRFNDATRQAERYRVGRVLLAGDAAHIHAPLGGQGLNLGIQDAFNLGWKLAAAVNGWAPEGLLDSYHTERHPVAAEVLDNTLAQSAFMSTDPRARAAHRLLLELMDFEEVNRHVMEKITAVGVRYDFGDGHALLGRRLRDVRLGQGRLYERMRHGRGVLLDRTGRLSVAGWADRVDHVADSAAEIDVPALLLRPDGHVAWIGEDQDDLLAHLPRWFGDPAA”, “not soluble”; with “MGSDKIHHHHHHMILCAGEALIDMLPRKTEAGEAAFAPYPGGSVFNTAVALSRLGTKTEFFSGLSTDLFGERLDSVLMANGVGSALAHRNDRPTTLAFVTLTDGHASYAFYDENTAGRMLTEADLPAIPETAKACFFGGISLAVEPCADAYAALIGRANDLGRVVMIDPNIRPGFIADEARFRARLDQMLAQTDIIKASDEDLRWLLGDMSLPELAEALRAKGPSVVLVTQGAAGVTGFYAGGEIHVDAEAVTVVDTVGAGDTFNAGVLAGLDDAGALDKAMIAKGLDAETLRGAMELGVRASAVTVTRAGANPPRRDELS”, “not soluble”.
With “MSSVVNAAYAEYNGKEKGDQEDPRVLIPQLCRLFYELGWVTGTGGGISLRHGEHIYIAPSGVQKERIQPEDLFVCDIDEKDISCPPPQKKLKKSQCTPPFMNAYTMRGAQAVIHTHSKSAVMATLLFPGKEFRITHQEMIKGIRKGNSGTNFRYDDTLVVPIIENTPEEKDLKERMARAMDMYPDSCAVLVRRHGVYVWGETWEKAKTMCECYDYLFDIAVQMKQSGLDPSAFPTEEKGIV” the entry was “not soluble”.
With “ESRSQISRRNQDMLLSVLDLEKMTVDDIMVPRSEIIGIDINDDWKSILRQLSHSPHGRIVLYRDSLDDAISMLRVREAWRLMSEKKEFTKETMLRAADEIYFVPEGTPLSTQLVKFQRNKKKVGLVVNEYGDIQGLVTVEDILE” the entry was “not soluble”.
With “MGSDKIHHHHHHMMGLPTLEQMQFQHAAAQLNALHAELIDDDRLEEWPDLFEEKCQYSVISAENHNRSLNLAAVFCDSRGMLVDRIVSLRRANIFPAHSYRHILGPTRVKSTSGQIVTTQTNYVVLMTRNDGQTSIYNSGKYVDQIDVSGAAPRFLSKTAIFDTHLIDTMMVRPI”, the “soluble on expression in E. coli” value is recorded as “not soluble”.
In the case of “MFSGIKGPNPSDLKGPELRILIVHARWNLQAIEPLVKGAVETMIEKHDVKLENIDIESVPGSWELPQGIRASIARNTYDAVIGIGVLIKGSTMHFEYISEAVVHGLMRVGLDSGVPVIFGLLTVLNEEQALYRAGLNGGHNHGNDWGSAAVEMGLKALY”, the “soluble on expression in E. coli” value is on record as “soluble”.
On to “MENPDSAFLLFRNAPRLPLATMHTPLCGDSHQPDFAFRKPARDALLRPWNGRNHRCGLQDGREICQGQLPAHQKSYWSDCAALPRLFRAYGGAVVRGFLIVGNKAFTQPFSLNDLPGAGRMDVLCRCTSQALFISHGIRRDVEVYLLLLGPPSPPKSILIKGDEVRRMSPDERNVAGHIKKALAVECGKSWKKVHSGVYVSRKGLEELIEELSEKYSIIYLKEDGVDISNAQLPPNPLFVIGDHEGLTEEQEKVVERYAALKLSLSPLSLLAEQCVVIAHHHLDRLQF”, for which the “soluble on expression in E. coli” value is recorded as “not soluble”.
Take “MQRIPCVLMRGGTSKGPFFHAWDLPANVVERDELLINLMGSGHELEIDGIGGGSPQTSKVAIISPSLHADADVDYLFVQVMVAQRRVDTAPNCGNMLCAVGPFAIEQGLVKGQEGKTLVRIRNLNTGTFVNSLVETPGGIVRYEGRTAIDGVPGTAAPVHLTFLDAVGSKTGKLFPTGKAQDVIDGVPVTCIDMAMPMMVVEASQLGVSGSETPAQLDANSALLERLEALRLKAGKAMGLGDVSGMVIPKPVLVSKPRYDGTLQVRYFMPHNCHRALAITGAVGLATACVSPGTVIADLLGEGAQQLAQVRLEHPSGGIDVALTRSGAEGQTIQASVVRTARRLFSGFVYAPTFRRLAGLEHHHHHH”: the “soluble on expression in E. coli” value is “soluble”.
As to “MGSDKIHHHHHHMEIFGKTFREGRFVLKEKNFTVEFAVEKIHLGWKISGRVKGSPGRLEVLRTKAPEKVLVNNWQSWGPCRVVDAFSFKPPEIDPNWRYTASVVPDVLERNLQSDYFVAEEGKVYGFLSSKIAHPFFAVEDGELVAYLEYFDVEFDDFVPLEPLVVLEDPNTPLLLEKYAELVGMENNARVPKHTPTGWCSWYHYFLDLTWEETLKNLKLAKNFPFEVFQIDDAYEKDIGDWLVTRGDFPSVEEMAKVIAENGFIPGIWTAPFSVSETSDVFNEHPDWVVKENGEPKMAYRNWNKKIYALDLSKDEVLNWLFDLFSSLRKMGYRYFKIDFLFAGAVPGERKKNITPIQAFRKGIETIRKAVGEDSFILGCGSPLLPAVGCVDGMRIGPDTAPFWGEHIEDNGAPAARWALRNAITRYFMHDRFWLNDPDCLILREEKTDLTQKEKELYSYTCGVLDNMIIESDDLSLVRDHGKKVLKETLELLGGRPRVQNIMSEDLRYEIVSSGTLSGNVKIVVDLNSREYHLEKEGKSSLKKRVVKREDGRNFYFYEEGERE”, the “soluble on expression in E. coli” value is recorded as “soluble”.
Consider “MGSDKIHHHHHHMFRILTINPGSTSTKLSIFEDERMVKMQNFSHSPDELGRFQKILDQLEFREKIARQFVEETGYSLSSFSAFVSRGGLLDPIPGGVYLVDGLMIKTLKSGKNGEHASNLGAIIAHRFSSETGVPAYVVDPVVVDEMEDVARVSGHPNYQRKSIFHALNQKTVAKEVARMMNKRYEEMNLVVAHMGGGISIAAHRKGRVIDVNNALDGDGPFTPERSGTLPLTQLVDLCFSGKFTYEEMKKRIVGNGGLVAYLGTSDAREVVRRIKQGDEWAKRVYRAMAYQIAKWIGKMAAVLKGEVDFIVLTGGLAHEKEFLVPWITKRVSFIAPVLVFPGSNEEKALALSALRVLRGEEKPKNYSEESRRWRERYDSYLDGILR”, for which the “soluble on expression in E. coli” value is “not soluble”.
